According to PMC3025356, “Mechanism of the Ca^2+-Dependent Interaction between S100A4 and Tail Fragments of Nonmuscle Myosin Heavy Chain IIA” (Journal of Molecular Biology, 2011):
Values joined by “and” are separate entries in the source; they are usually repeats but may differ in a detail not shown here. Equal entries are not always repeated.

Experiments:
[1] = Turbidity of M200 filaments; type: physicochemical
Method: Absorption spectra were recorded using a Cary 50 spectrophotometer (Varian Ltd., Walton on Thames, UK). Protein concentrations were calculated from their absorbance at 280 nm, using molar coefficients of 2980 M^− 1 cm^− 1 (M200 and S100A4) and 1490 M^− 1 cm^− 1 (M111), based on their tyrosine content (two residues per chain and one residue per chain, respectively). Myosin fragments were measured in 0.5 M NaCl buffer, and care was taken to correct for the small contribution from turbidity. Protein concentrations are stated in terms of their monomeric polypeptide chain concentration. Under the conditions used for kinetic analysis, S100A4 is predominantly a dimer,[21,25] and M200 and M111 form stable coiled coils; therefore, the molar protein concentrations are half those given in all three cases. Fluorescence emission spectra were also checked, and those preparations containing a detectable shoulder at 340 nm due to contaminating tryptophan-containing proteins were subjected to further purification. F-M16^N concentrations were based on fluorescein absorbance (ɛ490 = 78,000 M^− 1 cm^− 1). […] Quin-2 concentrations were calculated from ɛ354 = 5000 M^− 1 cm^− 1 in the absence of Ca^2+.[39] Turbidity assays used to monitor M200 filament formation and solubilisation with manual mixing were carried out using a 10-mm pathlength and a 0.1-ml microcuvette (105.250-QS; Hellma, Southend on Sea, UK) at a wavelength of 300 nm. For determination of the free Ca^2+ concentration, Fura-2 fluorescence excitation spectra were measured in the same cuvette using the 2-mm path for excitation to minimise inner filter effects. […]
y = m2*(1-((m0^m4)/(m0^ m4+m...
Fig. S5. (a) Turbidity of the M200 fragment (5
M) as a function of [NaCl]. (b) Determination of the critical concentration of M200 in 100 mM NaCl, 10 mM Hepes, 0.1 mM Ca2+ at pH 7.5 and 20 °C. Aliquots of 1 or […]
l of M200 were added to 1 ml buffer and the turbidity reading determined over a 30 s period. A linear fit to the data obtained above 0.3
M indicated a critical concentration of 0.1 […]

[2] = target: T1, S100A4 (Homo sapiens, UniProt P26447); assay: Quin-2 fluorescence, Ca^2+ dissociation from S100A4 in the presence of target peptides; type: binding
T1 construct: We used full-length S100A4 for this analysis; made in house; host or cells: Escherichia coli BL21(DE3)
T1 sequence (P26447 whole entry): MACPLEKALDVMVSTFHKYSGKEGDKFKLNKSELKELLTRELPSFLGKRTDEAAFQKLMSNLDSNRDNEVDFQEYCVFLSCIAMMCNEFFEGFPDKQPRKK
Method: Ca^2+ dissociation measurements for wild-type S100A4, using Quin-2 as described above, were repeated as a control for the effect of target peptides on this process. On mixing 10 μM S100A4 in the presence of Ca^2+ with 100 μM Quin-2, the observed profile was fitted to a single exponential with kobs = 17 s^− 1 (Fig. 5a; cf. k− 1 in Scheme 1).
Fig. 5 Dissociation of Ca^2+ from S100A4 in the absence and in the presence of target peptides monitored using Quin-2 fluorescence. (a) Mixed with 100 μM Quin-2 was 10 μM S100A4 + 50 μM Ca^2+ (stopped-flow reaction chamber concentrations). A superposed fit to a single exponential yields kobs = 17 s^− 1. […] (d) As in (a), but with 2.5 μM M200 premixed with 5 μM S100A4. A biphasic exponential fit yielded rate constants of 13 s^− 1 (A = 26%) and 0.30 s^− 1 (A = 74%). […] Experiments were carried out in either 20 mM NaCl, 20 mM Tris, 1 mM DTT, and 100 μM Ca^2+ at pH 7.5 and 20 °C (a and b; cf. Malashkevich et al.[17]), or 100 mM NaCl, 10 mM Hepes, and 100 μM Ca^2+ at pH 7.5 and 20 °C (c and d). […] Rate constants were unaffected by the inclusion of 1 mM Mg^2+.
Stopped-flow measurements were carried out using an SX18-MV apparatus (Applied Photophysics Ltd., Leatherhead, UK) with a dead time of 1.5 ms.[40] Records were generally captured on a logarithmic time base. Absorption (turbidity) measurements were usually recorded using a 10-mm pathlength, while fluorescence was recorded with a 2-mm pathlength for excitation and emission. The stated concentrations of components refer to the reaction chamber after mixing, unless otherwise indicated. Tyrosine fluorescence was excited at 280 nm, and the emission was collected through a UG11 bandpass filter plus a 305-nm longpass filter.[18] Fluorescein fluorescence was excited at 480 nm, and the emission was detected through a 515-nm longpass filter. Quin-2 fluorescence was measured by excitation at 336 nm, and emission was collected with a 455-nm longpass filter. For simultaneous recording of light scatter, a second channel was monitored through a UG11 filter. Rate constants were obtained by fitting to single-exponential or double-exponential functions using Kaleidagraph (Synergy Software) or Applied Photophysics Pro-Data software. Modeling of kinetic schemes was performed using Berkeley Madonna software.

[3] = 2.5 μM M200 premixed with 5 μM S100A4

B1: M200: His-tagged human NM-MHC IIA residues Q1761-E1960, V1913I substitution (protein, UniProt P35579 1761-1960, looked up, variant V1913I)
chain: QINTDLNLERSHAQKNENARQQLERQNKELKVKLQEMEGTVKSKYKASITALEAKIAQLEEQLDNETKERQAACKQVRRTEKKLKDVLLQVDDERRNAEQYKDQADKASTRLKQLKRQLEEAEEEAQRANASRRKLQRELEDATETADAMNREISSLKNKLRRGDLPFVVPRRMARKGAGDGSDEEVDGKADGAEAKPAE
modifications: His tag
notes: His-tagged human NM-MHC IIA residues Q1761-E1960, V1913I substitution
NaCl midpoint of turbidity transition ([1]; 5 μM M200): about 120 mM NaCl | intercept (critical concentration) from 2.5-5 μM data only ([1]; 100 mM NaCl): 0.49 µM | critical concentration ([1]; 100 mM NaCl, 10 mM Hepes, 0.1 mM Ca^2+, pH 7.5, 20 °C): ~0.1 ± 0.04 µM and < 0.2 µM | critical concentration (supplement) ([1]; 100 mM NaCl, 10 mM Hepes, 0.1 mM Ca^2+, pH 7.5, 20 °C, fit above 0.3 μM): 0.1 µM | fast-phase amplitude [2, 3]: 26% | slow-phase amplitude [2, 3]: 74% | slow-phase rate constant ([2]; 2.5 μM M200 premixed with 5 μM S100A4, 100 mM NaCl): 0.30 s^− 1 | fast-phase rate constant ([2]; 2.5 μM M200 premixed with 5 μM S100A4, 100 mM NaCl, 10 mM Hepes, 100 μM Ca^2+, pH 7.5, 20 °C): 13 s^− 1 | slower release of Ca^2+ ([2]; in presence of coiled-coil fragments): 0.3–0.5 s^− 1 | Ca^2+ dissociation rate constant from complex (k− 3), comparison ([2]; peptide–S100A4–Ca^2+ complex): 0.3 s^− 1
